Patent US20260274993A1 (HUMMINGBIRD BIOSCIENCE PTE, published 2026)
Residue numbers refer to the chain shown, from its start. Like-named read-outs stand apart in the source and are kept apart here.

Legend:
[1] = target: T1, 3A6; experiment: flow cytometry, EC50 of % parent (FITC), CHO cells overexpressing surface 3A6
T1 construct: also called 3A6 antibody (containing VH4-34 antigen); 3A6 (VH4-34 antigen)
Procedure: (§1) FACS was performed according to standard protocols. Briefly, cells were assayed in PBS with 0.5% BSA and 2 mM EDTA. […] Following this, cells were incubated with a secondary anti-mouse FITC antibody for 30 mins at 4° C. FITC readout was measured by FACS on a benchtop flow cytometer.

[2] = target: tabalumab; experiment: flow cytometry, EC50 of % parent (FITC), CHO cells overexpressing surface tabalumab (TABA)
tabalumab, sequence (VH, as listed by the source, chain 1 of 2): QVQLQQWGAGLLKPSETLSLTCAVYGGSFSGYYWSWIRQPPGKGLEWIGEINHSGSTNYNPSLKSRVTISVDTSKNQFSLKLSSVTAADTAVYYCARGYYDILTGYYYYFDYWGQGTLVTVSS
tabalumab, sequence (VL, as listed by the source, chain 2 of 2): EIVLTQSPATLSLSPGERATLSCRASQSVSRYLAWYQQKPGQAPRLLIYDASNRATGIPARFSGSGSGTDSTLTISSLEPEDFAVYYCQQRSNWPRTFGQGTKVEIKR
Procedure: as §1

[3] = target: T2, zanolimumab; experiment: flow cytometry, EC50 of % parent (FITC), CHO cells overexpressing surface zanolimumab (ZANO)
T2 construct: VH4-34-containing antibody used as the antigen, overexpressed on the surface of CHO cells; also called Zano.hIgG1
T2 sequence (VH, as listed by the source, chain 1 of 2): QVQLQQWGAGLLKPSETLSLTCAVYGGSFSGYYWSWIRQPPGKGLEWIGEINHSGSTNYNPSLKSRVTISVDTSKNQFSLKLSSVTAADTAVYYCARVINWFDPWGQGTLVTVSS
T2 sequence (VL, as listed by the source, chain 2 of 2): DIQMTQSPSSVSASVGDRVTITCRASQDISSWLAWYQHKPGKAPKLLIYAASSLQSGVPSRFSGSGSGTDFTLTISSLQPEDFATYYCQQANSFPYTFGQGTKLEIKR
Procedure: as §1

[4] = target: T3, 3A6 mutant FR1; experiment: flow cytometry, EC50 of % parent (FITC), CHO cells expressing 3A6 mutant FR1 (3A6 FR1); curve in FIG. 2A reaches about 95 % parent
T3 construct: also called 3A6 FR1; 3A6-FR1 (VH4-34 FR1 mutant)
T3 sequence (VH, as listed by the source, chain 1 of 2): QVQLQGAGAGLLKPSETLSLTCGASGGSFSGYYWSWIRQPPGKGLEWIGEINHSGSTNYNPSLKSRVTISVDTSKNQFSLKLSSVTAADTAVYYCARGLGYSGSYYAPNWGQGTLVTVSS
T3 sequence (VL, as listed by the source, chain 2 of 2): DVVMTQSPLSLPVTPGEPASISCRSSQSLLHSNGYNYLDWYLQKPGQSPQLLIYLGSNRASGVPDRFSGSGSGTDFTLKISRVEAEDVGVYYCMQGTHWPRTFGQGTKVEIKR
Procedure: as §1

[5] = target: T4, antibodies containing VH4-34 endogenously expressed by cell line OCI-Ly3; experiment: flow cytometry, EC50 of % parent (PE), OCI-Ly3 cells endogenously expressing VH4-34; curve in FIG. 4A reaches only about 40 % parent
T4 construct: Whole, on cells; also called VH4-34-expressing cell line OCI-Ly3
Procedure: (§2) FACS was performed according to standard protocols. Briefly, cells were assayed in PBS with 0.5% BSA and 2 mM EDTA. Live dead staining was performed with a live dead cell dye for 15 minutes at 4° C. […] Following this, cells were incubated with a secondary PE goat anti-mouse IgG for 30 mins at 4° C. and PE readout was measured.

[6] = target: T5, Zanolimumab mutant FR1; experiment: flow cytometry, EC50 of % parent (FITC), CHO cells expressing zanolimumab mutant FR1 (ZANO FR1); curve in FIG. 2A reaches about 95 % parent
T5 construct: also called Zano FR1
T5 sequence (VH, as listed by the source, chain 1 of 2): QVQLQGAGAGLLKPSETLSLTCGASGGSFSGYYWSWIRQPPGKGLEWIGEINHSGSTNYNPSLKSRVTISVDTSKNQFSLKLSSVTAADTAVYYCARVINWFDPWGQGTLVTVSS
Procedure: as §1

[7] = target: T6, Tabalumab mutant FR1; experiment: flow cytometry, EC50 of % parent (FITC), CHO cells expressing tabalumab mutant FR1 (TABA FR1); curve in FIG. 2A levels at only about 15 % parent
T6 construct: also called Taba FR1
T6 sequence (VH, as listed by the source, chain 1 of 2): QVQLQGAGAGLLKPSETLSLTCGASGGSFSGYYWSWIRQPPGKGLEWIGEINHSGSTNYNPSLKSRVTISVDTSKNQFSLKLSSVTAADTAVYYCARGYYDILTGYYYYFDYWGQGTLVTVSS
Procedure: as §1

[8] = target: tabalumab; experiment: cell-based or functional assay
[9] = target: T2, zanolimumab; experiment: cell-based or functional assay
[10] = target: T4, antibodies containing VH4-34 …; experiment: cell-based or functional assay
[11] = target: T3, 3A6 mutant FR1; experiment: flow cytometry, % parent (FITC), CHO cells expressing 3A6 mutant FR1
Procedure: as §1

[12] = target: T6, Tabalumab mutant FR1; experiment: flow cytometry, % parent (FITC), CHO cells expressing tabalumab mutant FR1
Procedure: as §1

[13] = target: T5, Zanolimumab mutant FR1; experiment: flow cytometry, % parent (FITC), CHO cells expressing zanolimumab mutant FR1
Procedure: as §1

[14] = target: T4, antibodies containing VH4-34 …; experiment: flow cytometry, EC50 of % parent (PE), OCI-Ly3 cells endogenously expressing VH4-34
Procedure: as §2

[15] = target: T3, 3A6 mutant FR1; experiment: flow cytometry, % parent (FITC), CHO cells expressing 3A6 mutant FR1; remark: listed apart in the source
Procedure: (§3) For FACS evaluation, cells were assayed in PBS with 0.5% BSA and 2 mM EDTA. […] Cells were incubated with a secondary anti-mouse FITC antibody for 20 mins at 4° C. FITC readout was measured by FACS.

[16] = target: T6, Tabalumab mutant FR1; experiment: flow cytometry, % parent (FITC), CHO cells expressing tabalumab mutant FR1; remark: listed apart in the source
Procedure: as §3

[17] = target: T5, Zanolimumab mutant FR1; experiment: flow cytometry, % parent (FITC), CHO cells expressing zanolimumab mutant FR1; remark: listed apart in the source
Procedure: as §3

[18] = target: T1, 3A6; experiment: flow cytometry, EC50 of % parent (FITC), CHO cells overexpressing surface 3A6; remark: listed apart in the source
Procedure: as §3

[19] = target: tabalumab; experiment: flow cytometry, EC50 of % parent (FITC), CHO cells overexpressing surface tabalumab (Taba)
Procedure: as §3

[20] = target: T2, zanolimumab; experiment: flow cytometry, EC50 of % parent (FITC), CHO cells overexpressing surface zanolimumab (Zano)
Procedure: as §3

[21] = target: T7, IGM-55.5; experiment: ELISA on plate-coated IGM-55.5 (1 ug/ml), detection with HRP goat anti-mouse IgG
T7 construct: Cold agglutinin antibody coated on the plate in the ELISA
Procedure: Plate was washed 3× with TBS+0.1% Tween 20. […] A secondary antibody (HRP-conjugated goat anti-mouse IgG) was prepared at 1:5000 dilution in blocking buffer and added to the plate with 1 hr incubation RT. TMB ELISA substrate was added and incubated for 15 mins at RT in the dark, before adding the stop solution. The absorbance was read at 450 nm.

[22] = target: T1, 3A6; experiment: ELISA, human IgG1 antigen captured on anti-human IgG Fc;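 also: humanized antibodies bound to human IgG1 antigen captured at 1 µg/ml on anti-human IgG Fc plates, detected with anti-mouse IgG Fc/HRP, VSTB112 serving as negative control protein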
Procedure: The binding affinity of each humanized antibody for 3A6 antibody (containing VH4-34 antigen), 3A6-FR1 (VH4-34 FR1 mutant) and VSTB112 (negative control protein) was evaluated.
Plates were coated with 1 ug/ml of anti-human IgG Fc overnight at 4° C. Plates were washed thrice with PBS/0.05% Tween (PBST) before blocking with 5% BSA for 1 h at room temp (RT). Plates were then washed again before addition of 1 μg/ml of 3A6 (VH4-34 antigen), 3A6-FR1 (VH4-34 FR1 mutant) or VSTB112 (negative control protein) human IgG1 proteins. Plates were washed thrice. […] After washing the plates, anti-mouse IgG Fc/HRP diluted 1:5000 in 1% BSA was added and incubated for 1 h at RT. Plates were washed before detection using 1-step ELISA substrate.

[23] = target: tabalumab; experiment: flow cytometry (geomean MFI), CHO cells overexpressing the surface antibody
[24] = target: T1, 3A6; experiment: as above
[25] = target: T2, zanolimumab; experiment: as above
[26] = target: T4, antibodies containing VH4-34 …; experiment: flow cytometry, EC50 of MFI, OCI-Ly3 cells endogenously expressing VH4-34
Procedure: (§4) Binding was assessed by FACS. Briefly, cells were assayed in PBS with 0.5% BSA and 2 mM EDTA. Live dead staining was performed with a live dead cell dye for 15 minutes at 4° C. […] Following this, cells were incubated with a secondary PE goat anti-mouse IgG (1:300) for 30 mins at 4° C. and PE readout was measured.

[27] = target: T4, antibodies containing VH4-34 …; experiment: flow cytometry, EC50 of % parent, OCI-Ly3 cells endogenously expressing VH4-34
Procedure: as §4

[28] = target: T5, Zanolimumab mutant FR1; experiment: flow cytometry, % parent (FITC), CHO cells expressing zanolimumab mutant FR1; remark: listed apart in the source
Procedure: as §1

[29] = target: T1, 3A6; experiment: flow cytometry, EC50 of % parent (FITC), CHO cells overexpressing surface 3A6; remark: listed apart in the source
Procedure: as §1

[30] = target: tabalumab; experiment: flow cytometry, EC50 of % parent (FITC), CHO cells overexpressing surface tabalumab (Taba); remark: listed apart in the source
Procedure: as §1

[31] = target: T2, zanolimumab; experiment: flow cytometry, EC50 of % parent (FITC), CHO cells overexpressing surface zanolimumab (Zano); curve in FIG. 1A reaches only about 45 % parent
Procedure: as §1

T1 sequence (VH, as listed by the source, chain 1 of 2): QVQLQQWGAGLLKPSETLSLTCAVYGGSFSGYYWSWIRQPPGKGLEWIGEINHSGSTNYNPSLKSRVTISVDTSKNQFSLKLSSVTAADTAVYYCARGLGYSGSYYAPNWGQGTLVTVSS

B1: D011-6040 (antibody, human IgG1, kappa, V domains shown)
VH: EVQLQQSGAEFVRSGASVKLSCTASGFNIKDYYMHWVKQRPEQGLDWIGWIDPENGDADYDPKFQGKATMTADTSSNTAYLHLSSLTSEDAAVYYCNACHYYGYEDAMDYWGQGTSVTVSS
VL: DIQMTQSPSSLSASLGERVSLTCRASQEISGYLSWLQQKPDGTIKRLIYAASTLDSGVPKRFSGSRSGSDYSLTISSLESEDFADYYCLQYAGYPRTFGGGTRLEIKR
notes: also called [3]; D011-6040.IgG2a
EC50 [1]: 0.00895 nM | EC50 [2]: 0.00587 nM | EC50 [3]: 0.0043 nM | EC50 [4]: 4.8 nM | EC50 [5]: 0.661 nM | EC50 [6]: 0.821 nM | EC50 [7]: 3.93 nM

B2: D011-7016.hIgG1 (antibody)
heavy: not shown
light: DIVMTQSPATLSVTPGDSVSLSCRANQSIDNNLHWYQQRSHESPRLLINYASQSISGIPSRFSGSGSGTDFTLSISSVETEDFGMYFCQQSYGWPYTFGGGTKLEIKRTVAAPSVFIFPPSDEQLKSGTASVVCLLNNFYPREAKVQWKVDNALQSGNSQESVTEQDSKDSTYSLSSTLTLSKADYEKHKVYACEVTHQGLSSPVTKSFNRGEC
EC50 of ADCC reporter luminescence (RLU), Jurkat Lucia NFAT-CD16 effector cells with tabalumab-expressing CHO target cells [8]: 1.02 nM | EC50 of ADCC reporter luminescence (RLU), Jurkat Lucia NFAT-CD16 effector cells with zanolimumab-expressing CHO target cells [9]: 1.09 nM | EC50 of ADCP (% CFSE of CD14+ cells), M0 macrophages with CFSE-labelled OCI-Ly3 target cells [10]: 0.0615 nM

B3: D011-6039.IgG2a (antibody, V domains shown)
VH: EVMLVESGGGLVQPGGSLKLSCAASGFTFSSYGMSWVRQTPDKRLELVATINSNGVNTYYPDSVKGRFTISRDNAKNTLYLQMSSLKSEDTAMYYCARVPFDYWGQGTSLTVSS
VL: DIVMTQSPAIMSASLGEKVTMSCRASSSVDYIYWYQQKSDASPKLWIYYTSTLAPGVPARFSGSGSGNSYSLTISSMEGEDAATYYCQQFTSSPWTFGGGTRLEIKR
binding result [11]: no binding (tested: Log M about -7.2 (about 7e-8 M)) | binding result [12]: no binding (tested: Log M about -7.2 (about 7e-8 M)) | binding result [13]: no binding (tested: Log M about -7.2 (about 7e-8 M)) | EC50 [1]: 8.96 nM | EC50 [14]: 0.273 nM | EC50 [2]: 0.0444 nM | EC50 [3]: 10.4 nM

B4: D011-7016-LD1.IgG2a (antibody, V domains shown)
VH: EVQLVESGPSLVKPSQTLSLICSVTGDAITSGYWNWVRKFPGNKLEYMGYISYSGSAHYNPSLKSRISITRDTSKNQYYLQLNSMTTEDTATYYCASYSFAYWGQGTLVTVSA
VL: DIVMTQSPATLSVTPGDSVSLSCRAQQSIDNQLHWYQQRSHESPRLLINYASQSISGIPSRFSGSGSGTDFTLSISSVETEDFGMYFCQQSYGWPYTFGGGTKLEIKR
binding result [15]: no binding (tested: Log M about -8.1 (about 8e-9 M)) | binding result [16]: no binding (tested: Log M about -8.1 (about 8e-9 M)) | binding result [17]: no binding (tested: Log M about -8.1 (about 8e-9 M)) | EC50 [18]: 0.0104 nM | EC50 [19]: 0.00863 nM | EC50 [20]: 0.0105 nM

B5: D011-7016.IgG2a (antibody)
heavy: EVQLVESGPSLVKPSQTLSLICSVTGDSITSGYWNWVRKFPGNKLEYMGYISYSGSAHYNPSLKSRISITRDTSKNQYYLQLNSMTTEDTATYYCASYSFAYWGQGTLVTVSAASTKGPSVFPLAPSSKSTSGGTAALGCLVKDYFPEPVTVSWNSGALTSGVHTFPAVLQSSGLYSLSSVVTVPSSSLGTQTYICNVNHKPSNTKVDKKVEPKSCDKTHTCPPCPAPELLGGPSVFIFPPKIKDVLMISLSPIVTCVVVDVSEDDPDVQISWFVNNVEVHTAQTQTHREDYNSTLRVVSALPIQHQDWMSGKEFKCKVNNKDLPAPIERTISKPKGSVRAPQVYVLPPPEEEMTKKQVTLTCMVTDFMPEDIYVEWTNNGKTELNYKNTEPVLDSDGSYFMYSKLRVEKKNWVERNSYSCSVVHEGLHNHHTTKSFSRTPGK
light: B2 light
notes: also called [4]
binding result [11]: no binding (tested: Log M about -7.2 (about 7e-8 M)) | binding result [16]: no binding (tested: Log M about -8.1 (about 8e-9 M)) | binding result [17]: no binding (tested: Log M about -8.1 (about 8e-9 M)) | EC50 [1]: 0.0258 nM | EC50 [18]: 0.00751 nM | EC50 (read off the curve) [21]: ~0.0002 nM | EC50 [14]: 0.0194 nM | EC50 [2]: 0.0313 nM | EC50 [19]: 0.00558 nM | EC50 [3]: 0.0164 nM | EC50 [20]: 0.00926 nM

B6: D011-7016-LD2.IgG2a (antibody, V domains shown)
VH: B4 VH
VL: B4 VL with Q26S
notes: also called [8]
EC50 [22]: 0.0254 nM | EC50 [23]: 0.28 nM | EC50 [24]: 0.519 nM | EC50 [25]: 0.692 nM | binding result [15]: no binding (tested: Log M about -8.1 (about 8e-9 M)) | binding result [16]: no binding (tested: Log M about -8.1 (about 8e-9 M)) | EC50 [26]: 0.243 nM | binding result [17]: no binding (tested: Log M about -8.1 (about 8e-9 M)) | EC50 [18]: 0.00909 nM | EC50 [27]: 0.00477 nM | EC50 [19]: 0.00688 nM | EC50 [20]: 0.00892 nM

B7: D011-1E11p.IgG2a (antibody, V domains shown)
VH: EVQLQQSGPELVKPGASMKISCKASGYSFTGSTMNWVKQSPGKNLEWIGLINPYNGGTSYNQKFEGKATLTVDKSSSTAYMELLSLTSVDSAVYYCASRGKNGYDGRDFDCWGQGTSVTVSS
VL: DIVLTQSPLSLPVNIGDQASISCKSTKSLLNSGGFTYLDWYLQKPGQSPQLLIYLVSNRFSGVPDRFSGSGSGTDFTLKISRVEAEDLGVYYCFQSNYFPFTFGSGTKLEIKR
binding result [28]: no binding (tested: Log M about -7.2 (about 7e-8 M)) | EC50 [29]: 1.52 nM | EC50 [30]: 0.0823 nM | EC50 [31]: 3.49 nM
